Measurements as given in US20120322862.

Target: 4-1BB (TNFRSF9) extracellular domain (Homo sapiens) (UniProt Q07011)
Assay: competition
Conditions: all dT replaced by TrpdU (5-(N-tryptaminocarboxyamide)-2'-deoxyuridine); all C 5-methyl-dC; inhibition of 4-1BB ligand capture by receptor on Protein A beads (co-IP); PBS/0.02% Tween-20, 37 C

CCTGCACCCAGTGTCCCNGANGGGGNNNNNNAGNNGNANNNNGNAANGGNGGANGNNGANGGAGAGGAGGANGG [1684-40]
IC50: 810 pM
